Results on two molecules are retold here after PMC11960969, “Mdga2 deficiency leads to an aberrant activation of BDNF/TrkB signaling that underlies autism-relevant synaptic and behavioral changes in mice” (PLOS Biology, 2025).

Assay [1] addresses T1, recombinant TrkB protein (full-length human TrkB, His) (human, UniProt Q16620 32-822).
T1 construct: TrkB, human, full-length cDNA in the pcDNA6-His vector; also called purified human TrkB protein; human TrkB protein; source: HEK293T, purified (His-tag Protein Purification Kit)
As to the kind of experiment: SPR; TrkB immobilised on a Biacore CM5 chip by amine coupling; recombinant MDGA2 protein or MDGA2-P2 peptide flowed over at a series of concentrations; Biacore T100 Evaluation software. To be noted: both partners purified. A general note: Surface plasmon resonance follows binding to a sensor surface in real time, without labels.

Assay [2] concerns the target T1, recombinant TrkB protein (full-length …). Kind of assay: pull-down; purified human TrkB protein incubated with GST-fused MDGA2-L1, MDGA2-L2 or GST and pulled down with Glutathione Sepharose 4B; immunoblot. To be noted: both partners purified.

T1 sequence (Q16620 32-822): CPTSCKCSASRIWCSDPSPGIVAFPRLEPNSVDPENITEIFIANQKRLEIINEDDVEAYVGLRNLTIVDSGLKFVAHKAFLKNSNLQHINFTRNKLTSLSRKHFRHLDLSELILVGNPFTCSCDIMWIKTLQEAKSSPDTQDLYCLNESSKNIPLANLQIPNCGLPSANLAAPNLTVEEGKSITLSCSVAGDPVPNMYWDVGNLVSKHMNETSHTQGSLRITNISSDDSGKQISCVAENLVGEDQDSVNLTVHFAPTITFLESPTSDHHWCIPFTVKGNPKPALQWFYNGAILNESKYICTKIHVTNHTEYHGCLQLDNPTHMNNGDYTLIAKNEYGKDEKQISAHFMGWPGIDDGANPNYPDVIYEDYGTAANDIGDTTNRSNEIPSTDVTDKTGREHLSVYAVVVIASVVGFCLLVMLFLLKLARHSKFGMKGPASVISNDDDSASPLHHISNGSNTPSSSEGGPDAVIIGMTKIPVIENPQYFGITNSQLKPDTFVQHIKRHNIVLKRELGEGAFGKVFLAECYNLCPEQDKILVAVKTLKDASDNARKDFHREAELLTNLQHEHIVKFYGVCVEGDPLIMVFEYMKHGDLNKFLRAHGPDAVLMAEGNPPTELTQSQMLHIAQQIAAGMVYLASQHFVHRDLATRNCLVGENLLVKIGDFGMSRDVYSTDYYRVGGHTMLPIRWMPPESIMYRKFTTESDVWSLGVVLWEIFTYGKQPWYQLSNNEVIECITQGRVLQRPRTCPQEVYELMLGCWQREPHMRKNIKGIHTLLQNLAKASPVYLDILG

B1: MDGA2-P2 peptide (aa 812-833), label not stated (peptide)
peptide: KARLLSPVFSIAPKNPYGPTNT
notes: MDGA2, human, residues 812-833 (P2); The methods tell the synthesis only of the biotin-labeled peptide; also called MDGA2-derived peptide; source: synthetic peptide
As usually defined, the Kd is the constant that tells how readily two partners part at equilibrium. In the case of B1, in assay [1], the Kd came out at 9.2 nM.

B2: GST-fused MDGA2-L2 (MDGA2 aa 787-833) (domain or fragment, human, UniProt Q7Z553 787-833, looked up)
chain: NADRSGSKEGFYMYIETSRPRLEGEKARLLSPVFSIAPKNPYGPTNT
notes: MDGA2, human, residues 787-833 (L2, second segment of the M1 half of the MAM domain); also called GST-tagged L2; source: bacteria, purified (Glutathione Sepharose 4B)
For B2, the binding result in assay [2] is on record as “binds”.
